Results taken from patent US10428140B2, “Anti-EphA4 antibody” (EISAI R&D MANAGEMENT CO., LTD., priority 2015, dated 2019).
Residue numbers refer to the chain shown, from its start.

T1: human EphB2 (Homo sapiens, UniProt P29323)
T1 construct: a protein of the extracellular region of each human Eph receptor fused with the SEAP protein and the His tag; made in house; host or cells: Expi293F cells
T1 sequence (P29323 19-543 limits assumed): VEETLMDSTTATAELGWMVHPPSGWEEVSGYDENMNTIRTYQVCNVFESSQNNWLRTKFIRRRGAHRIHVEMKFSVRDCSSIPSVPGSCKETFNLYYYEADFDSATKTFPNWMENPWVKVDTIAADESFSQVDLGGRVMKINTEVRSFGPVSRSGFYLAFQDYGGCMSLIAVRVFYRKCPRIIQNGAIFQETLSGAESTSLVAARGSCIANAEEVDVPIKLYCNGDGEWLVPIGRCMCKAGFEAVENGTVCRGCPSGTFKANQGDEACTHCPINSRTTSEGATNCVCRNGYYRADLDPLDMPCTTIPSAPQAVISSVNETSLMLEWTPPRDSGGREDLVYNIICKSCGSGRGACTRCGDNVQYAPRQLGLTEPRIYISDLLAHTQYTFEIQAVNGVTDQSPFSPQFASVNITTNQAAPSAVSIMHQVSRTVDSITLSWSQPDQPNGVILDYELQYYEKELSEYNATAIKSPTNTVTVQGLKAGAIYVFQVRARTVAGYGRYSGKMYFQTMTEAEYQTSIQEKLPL

T2: human EphB4 (Homo sapiens, UniProt P54760)
T2 construct: a protein of the extracellular region of each human Eph receptor fused with the SEAP protein and the His tag; made in house; host or cells: Expi293F cells
T2 sequence (P54760 16-539 limits assumed): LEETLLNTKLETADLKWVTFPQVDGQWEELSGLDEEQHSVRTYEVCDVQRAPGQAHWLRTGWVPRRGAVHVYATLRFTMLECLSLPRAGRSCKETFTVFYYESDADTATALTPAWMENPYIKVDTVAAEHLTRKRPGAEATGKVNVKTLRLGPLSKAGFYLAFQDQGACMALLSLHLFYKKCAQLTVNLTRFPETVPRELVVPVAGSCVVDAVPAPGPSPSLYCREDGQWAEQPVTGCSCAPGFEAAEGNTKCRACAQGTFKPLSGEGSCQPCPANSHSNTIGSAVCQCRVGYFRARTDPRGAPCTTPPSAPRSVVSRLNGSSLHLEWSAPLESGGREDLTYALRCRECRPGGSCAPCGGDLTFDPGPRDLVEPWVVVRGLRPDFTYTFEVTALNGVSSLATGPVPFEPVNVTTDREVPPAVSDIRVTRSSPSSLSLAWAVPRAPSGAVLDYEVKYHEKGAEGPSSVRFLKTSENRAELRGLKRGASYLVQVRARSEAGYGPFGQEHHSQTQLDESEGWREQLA

B1: 88 (antibody, V domains shown)
VL: DIQMTQSPSSLSASVGDRVTITCRASENIYRNLAWYQQKPGKAPQLLLYAATNLADGVPSRFSGSGSGTDYTLTISSLQPEDFATYYCQHFWGTPWTFGQGTKVEIK
VH: QVQLVQSGSELKKPGASVKVSCKASGYTFTDYSMHWVRQAPGQGLKWMGWINTETGEPTYAQGFTGRFVFSLDTSVSTAYLQISSLKAEDTAVYYCARIPLYYYGSRYWYFDVWGQGTTVTVSS
modifications: constant regions without entry; synthetic humanized antibody light chain variable region sequence; synthetic humanized antibody heavy chain variable region sequence
B2: 95 (antibody, V domains shown)
VL: EIVMTQSPATLSVSPGERATLSCRASENIYRNLAWYQQKPGQSPRLLIYAATNLADGIPARFSGSGSGTEYTLTISSLQSEDFAVYYCQHFWGTPWTFGQGTKVEIK
VH: B1 VH with K46E, Q62D, G63D, T65K
modifications: constant regions without entry; synthetic humanized antibody light chain variable region sequence; synthetic humanized antibody heavy chain variable region sequence
B3: 93 (antibody, V domains shown)
VL: B2 VL
VH: B1 VH with K46E
modifications: constant regions without entry; synthetic humanized antibody light chain variable region sequence; synthetic humanized antibody heavy chain variable region sequence
B4: 94 (antibody, V domains shown)
VL: B2 VL
VH: B1 VH
modifications: constant regions without entry; synthetic humanized antibody light chain variable region sequence; synthetic humanized antibody heavy chain variable region sequence
B5: 73 (antibody, V domains shown)
VH: B1 VH with V2I, Q62D, G63D, T65K
VL: B2 VL
modifications: synthetic humanized antibody heavy chain variable region sequence; synthetic humanized antibody light chain variable region sequence
B6: 89 (antibody, V domains shown)
VL: B1 VL
VH: B1 VH with V2I
modifications: constant regions without entry; synthetic humanized antibody light chain variable region sequence; synthetic humanized antibody heavy chain variable region sequence
B7: 96 (antibody, V domains shown)
VL: B2 VL
VH: B1 VH with Q62D, G63D, T65K
modifications: constant regions without entry; synthetic humanized antibody light chain variable region sequence; synthetic humanized antibody heavy chain variable region sequence
B8: 92 (antibody, V domains shown)
VL: B1 VL
VH: B1 VH with V2I, Q62D, G63D, T65K
modifications: constant regions without entry; synthetic humanized antibody light chain variable region sequence; synthetic humanized antibody heavy chain variable region sequence
B9: 71 (antibody, V domains shown)
VH: B1 VH with V2I
VL: B2 VL
modifications: synthetic humanized antibody heavy chain variable region sequence; synthetic humanized antibody light chain variable region sequence
B10: 90 (antibody, V domains shown)
VL: B1 VL
VH: B1 VH with K46E, Q62D, G63D, T65K
modifications: constant regions without entry; synthetic humanized antibody light chain variable region sequence; synthetic humanized antibody heavy chain variable region sequence
B11: 91 (antibody, V domains shown)
VL: B1 VL
VH: B1 VH with Q62D, G63D, T65K
modifications: constant regions without entry; synthetic humanized antibody light chain variable region sequence; synthetic humanized antibody heavy chain variable region sequence

target: T3, human EphA2 (Homo sapiens, UniProt P29317); test: Selectivity ELISA of humanized antibodies for human Eph receptor; type: binding; details: coated protein 1 nM
T3 construct: a protein of the extracellular region of each human Eph receptor fused with the SEAP protein and the His tag; made in house; host or cells: Expi293F cells (culture supernatant)
Summary of the method: (§1)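 Steps: coat anti-His antibody; block, then 1% BlockAce overnight at 4 °C; add Eph receptor extracellular region-SEAP-His (1 nM final) 1 h; add humanized antibody 1 h; add HRP anti-IgG 1 h; develop TMB; stop with acid; read 450 nm.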

T3 sequence (P29317 24-537 limits assumed): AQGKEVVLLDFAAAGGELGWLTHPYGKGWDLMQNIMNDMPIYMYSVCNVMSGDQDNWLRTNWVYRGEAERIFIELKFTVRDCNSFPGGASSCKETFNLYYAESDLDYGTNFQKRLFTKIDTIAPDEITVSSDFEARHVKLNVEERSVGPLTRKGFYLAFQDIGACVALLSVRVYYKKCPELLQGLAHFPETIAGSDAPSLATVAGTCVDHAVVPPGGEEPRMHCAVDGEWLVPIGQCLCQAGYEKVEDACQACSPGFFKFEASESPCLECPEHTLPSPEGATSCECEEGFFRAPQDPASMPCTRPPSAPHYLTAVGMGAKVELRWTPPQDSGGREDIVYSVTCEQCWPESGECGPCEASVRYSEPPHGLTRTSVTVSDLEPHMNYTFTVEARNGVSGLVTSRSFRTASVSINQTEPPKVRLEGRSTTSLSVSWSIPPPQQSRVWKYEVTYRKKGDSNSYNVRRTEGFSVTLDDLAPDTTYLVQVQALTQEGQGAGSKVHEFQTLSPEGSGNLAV

| hEphA2-SEAP-: absorbance at 450 nm, percentage with respect to hEphA4-SEAP-His as 100% [%] | Molecule |
| --- | --- |
| 5.8 | B1 |
| 4.2 | B2 |
| 5.0 | B3 |
| 6.4 | B4 |
| 5.7 | B5 |
| 5.6 | B6 |
| 5.3 | B7 |
| 6.9 | B8 |
| 5.7 | B9 |
| 5.2 | B10 |
| 6.1 | B11 |

target: T4, human EphA4 (Homo sapiens, UniProt P54764); test: as above; type: binding; details: coated protein 1 nM; reference set to 100%
T4 construct: made in house; not restated for the human SEAP-His protein
Summary of the method: as §1

T4 sequence (P54764 20-547): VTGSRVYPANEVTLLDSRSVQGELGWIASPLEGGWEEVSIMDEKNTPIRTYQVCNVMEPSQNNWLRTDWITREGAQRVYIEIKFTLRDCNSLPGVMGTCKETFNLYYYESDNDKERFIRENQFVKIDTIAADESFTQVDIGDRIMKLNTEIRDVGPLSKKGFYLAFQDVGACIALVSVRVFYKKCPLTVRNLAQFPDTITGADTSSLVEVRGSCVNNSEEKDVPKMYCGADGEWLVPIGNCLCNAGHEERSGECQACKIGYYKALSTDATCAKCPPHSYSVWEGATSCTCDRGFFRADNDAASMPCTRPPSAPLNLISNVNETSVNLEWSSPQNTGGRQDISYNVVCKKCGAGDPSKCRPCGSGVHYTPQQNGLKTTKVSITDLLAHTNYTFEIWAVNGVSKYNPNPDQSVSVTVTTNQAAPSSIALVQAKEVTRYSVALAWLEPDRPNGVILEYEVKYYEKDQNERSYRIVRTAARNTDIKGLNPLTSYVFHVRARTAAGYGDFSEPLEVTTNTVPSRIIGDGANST

| hEphA4-SEAP-: absorbance at 450 nm, percentage with respect to hEphA4-SEAP-His as 100% [%] | Molecule |
| --- | --- |
| 100 | B1 |
| 100 | B2 |
| 100 | B3 |
| 100 | B4 |
| 100 | B5 |
| 100 | B6 |
| 100 | B7 |
| 100 | B8 |
| 100 | B9 |
| 100 | B10 |
| 100 | B11 |

target: T1, human EphB2; test: as above; type: binding; details: coated protein 1 nM
Summary of the method: as §1

| hEphB2-SEAP-: absorbance at 450 nm, percentage with respect to hEphA4-SEAP-His as 100% [%] | Molecule |
| --- | --- |
| 6.0 | B1 |
| 4.7 | B2 |
| 5.0 | B3 |
| 7.0 | B4 |
| 5.6 | B5 |
| 5.7 | B6 |
| 5.5 | B7 |
| 6.6 | B8 |
| 5.5 | B9 |
| 5.9 | B10 |
| 7.0 | B11 |

target: T2, human EphB4; test: as above; type: binding; details: coated protein 1 nM
Summary of the method: as §1

| hEphB4-SEAP-: absorbance at 450 nm, percentage with respect to hEphA4-SEAP-His as 100% [%] | Molecule |
| --- | --- |
| 6.1 | B1 |
| 4.6 | B2 |
| 5.0 | B3 |
| 6.5 | B4 |
| 5.7 | B5 |
| 5.8 | B6 |
| 5.5 | B7 |
| 6.6 | B8 |
| 5.5 | B9 |
| 5.0 | B10 |
| 6.2 | B11 |
